This passage reports EC50 results from US20230125561A1 (published 2023).

For this assay, the target named is SARS-CoV-2 Spike S1 protein, B.1.351 (S. African) variant (SARS-CoV-2, UniProt P0DTC2 16-685). The assay is described as follows: ELISA. A general note: An ELISA detects its analyte on a solid surface through an enzyme-linked reagent.

For orientation: EC50 means the concentration giving half of the maximal effect.

B1: Neumifil (HEX17: trimeric (hexavalent) form based on S. pneumoniae CBM40) (designed binder)
chain: GAMVIEKEDVETNASNGQRVDLSSELDKLKKLENATVHMEFKPDPKAPAFYNLFSVSSATKKDEYFTMAVYNNTATLEGRGSDGKQFYNNYNDAPLKVKPGQWNSVTFTVEKPTAELPKGRARLYVNGGLSRTSLRSGNFIKDMPDVTHVQIGATKRANNTVWGSNLQIRNLTVYNRALTPEEVQKRSGGGSGVIEKEDVETNASNGQRVDLSSELDKLKKLENATVHMEFKPDPKAPAFYNLFSVSSATKKDEYFTMAVYNNTATLEGRGSDGKQFYNNYNDAPLKVKPGQWNSVTFTVEKPTAELPKGRARLYVNGGLSRTSLRSGNFIKDMPDVTHVQIGATKRANNTVWGSNLQIRNLTVYNRALTPEEVQKRSGGSLGVPDFESDWFDVSSNSLYTLSHGLQRSPRRVVVEFARSSSPSTWNIVMPSYFNDGGHKGSGAQVEVGSLNIKLGTGAAVWGTGYFGGIDNSATTRFATGYYRVRAWI
B1 showed an EC50 of 0.17 µg/mL.
